Laboratory results from patent US20140087995A1 (published 2014).
Where a chain is given by its changes, count along the chain named. Numbered stars: 1 amine (or outer) side, 2 acyl side, 3 side chain; on linkers, the order of the positions; unused ones are H or OH. Bridge positions count the residues as written; N and C are the ends. Side chains are listed from the residue outwards. Ends that are not written are not given here. * marks the point of attachment. C20 diacid = O=C(O)CCCCCCCCCCCCCCCCCCC(=O)*; γGlu = O=C(O)[C@H](CCC(=O)[*:2])N[*:1]; AEEA = NCCOCCOCC(=O)O

T1: human calcitonin receptor (human, UniProt P30988 25-474)
T1 sequence (looked up): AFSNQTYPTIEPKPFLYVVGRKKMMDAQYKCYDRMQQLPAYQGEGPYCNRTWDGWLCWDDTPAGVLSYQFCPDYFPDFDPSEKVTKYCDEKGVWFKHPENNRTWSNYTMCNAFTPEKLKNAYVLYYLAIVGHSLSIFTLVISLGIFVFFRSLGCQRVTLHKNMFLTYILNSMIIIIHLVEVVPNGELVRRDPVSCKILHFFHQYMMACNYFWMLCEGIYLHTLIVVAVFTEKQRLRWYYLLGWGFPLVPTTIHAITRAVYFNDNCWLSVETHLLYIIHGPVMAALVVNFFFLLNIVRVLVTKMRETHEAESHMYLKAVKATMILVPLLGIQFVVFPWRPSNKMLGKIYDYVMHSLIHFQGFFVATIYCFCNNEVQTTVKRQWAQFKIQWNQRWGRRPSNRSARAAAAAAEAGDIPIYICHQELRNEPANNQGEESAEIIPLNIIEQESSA

T2: human amylin receptor (amylin 3(a) receptor: human calcitonin receptor plus RAMP-3) (human, UniProt P30988 25-474; O60896 24-148, limits assumed)
T2 sequence (looked up) 1: T1 sequence (looked up)
T2 sequence (looked up) 2: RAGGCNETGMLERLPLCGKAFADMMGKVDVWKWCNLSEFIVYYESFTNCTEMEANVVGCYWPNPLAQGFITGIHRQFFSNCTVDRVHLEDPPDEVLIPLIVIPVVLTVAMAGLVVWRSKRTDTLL

T3: human calcitonin receptor (human, UniProt P30988 25-474)
T3 sequence (looked up): T1 sequence (looked up)

B1: N^α1-[2-[2-[2-[[2-[2-[2-[[(4S)-4-carboxy-4-(19-carboxynonadecanoylamino)butanoyl]amino]ethoxy]ethoxy]acetyl]amino]ethoxy]ethoxy]acetyl]-[Arg17,Pro21,Pro27]-h-am … (peptide)
peptide: KCNTATCATQRLANFLRHSSPNFGAIPSSTNVGSNTY
modifications: C20 diacid-gGlu-2xOEG on the alpha amino group of the N-terminal residue; disulfide bridge Cys2-Cys7; C-terminal amide
notes: Synthetic acylated analogue of human amylin; also called compound 24
B2: N^ε1-[(4S)-4-carboxy-4-[[(4S)-4-carboxy-4-(19-carboxynonadecanoylamino)butanoyl]amino]butanoyl]-[Asp14,Arg17,Pro21,Pro27,Arg35]-h-amylin (peptide)
peptide: K([γGlu-γGlu-C20 diacid])CNTATCATQRLADFLRHSSPNFGAIPSSTNVGSRTY-NH2
modifications: disulfide 2-7; N-terminus assumed
SMILES: CC[C@H](C)[C@H](NC(=O)[C@H](C)NC(=O)CNC(=O)[C@H](Cc1ccccc1)NC(=O)[C@H](CC(N)=O)NC(=O)[C@@H]1CCCN1C(=O)[C@H](CO)NC(=O)[C@H](CO)NC(=O)[C@H](Cc1c[nH]cn1)NC(=O)[C@H](CCCNC(=N)N)NC(=O)[C@H](CC(C)C)NC(=O)[C@H](Cc1ccccc1)NC(=O)[C@H](CC(=O)O)NC(=O)[C@H](C)NC(=O)[C@H](CC(C)C)NC(=O)[C@H](CCCNC(=N)N)NC(=O)[C@H](CCC(N)=O)NC(=O)[C@@H](NC(=O)[C@H](C)NC(=O)[C@@H]1CSSC[C@H](NC(=O)[C@@H](N)CCCCNC(=O)CC[C@H](NC(=O)CC[C@H](NC(=O)CCCCCCCCCCCCCCCCCCC(=O)O)C(=O)O)C(=O)O)C(=O)N[C@@H](CC(N)=O)C(=O)N[C@@H]([C@@H](C)O)C(=O)N[C@@H](C)C(=O)N[C@@H]([C@@H](C)O)C(=O)N1)[C@@H](C)O)C(=O)N1CCC[C@H]1C(=O)N[C@@H](CO)C(=O)N[C@@H](CO)C(=O)N[C@H](C(=O)N[C@@H](CC(N)=O)C(=O)N[C@H](C(=O)NCC(=O)N[C@@H](CO)C(=O)N[C@@H](CCCNC(=N)N)C(=O)N[C@H](C(=O)N[C@@H](Cc1ccc(O)cc1)C(N)=O)[C@@H](C)O)C(C)C)[C@@H](C)O
notes: Synthetic acylated analogue of human amylin; also called compound 52
B3: N^α1-[(4S)-4-carboxy-4-(19-carboxynonadecanoylamino)butanoyl]-[Arg17,Pro21,Pro27,Glu35]-h-amylin (peptide)
peptide: B1 peptide with N35E
modifications: C20 diacid-gGlu on the alpha amino group of the N-terminal residue; disulfide bridge Cys2-Cys7; C-terminal amide
notes: Synthetic acylated analogue of human amylin; also called compound 23
B4: N^α1-[(4S)-4-carboxy-4-(19-carboxynonadecanoylamino)butanoyl]-[Arg17,Pro21,Pro27,His34]-h-amylin (peptide)
peptide: B1 peptide with S34H
modifications: C20 diacid-gGlu on the alpha amino group of the N-terminal residue; disulfide bridge Cys2-Cys7; C-terminal amide
notes: Synthetic acylated analogue of human amylin; also called compound 40
B5: N^α1-[(4S)-4-carboxy-4-(19-carboxynonadecanoylamino)butanoyl]-[Arg17,Pro21,Pro27,Lys35]-h-amylin (peptide)
peptide: B1 peptide with N35K
modifications: C20 diacid-gGlu on the alpha amino group of the N-terminal residue; disulfide bridge Cys2-Cys7; C-terminal amide
notes: Synthetic acylated analogue of human amylin; also called compound 34
B6: N^α1-[2-[2-[2-[[2-[2-[2-[[(4S)-4-carboxy-4-(19-carboxynonadecanoylamino)butanoyl]amino]ethoxy]ethoxy]acetyl]amino]ethoxy]ethoxy]acetyl]-[Glu14,Arg17,Pro21,Pro27 … (peptide)
peptide: B1 peptide with N14E
modifications: C20 diacid-gGlu-2xOEG on the alpha amino group of the N-terminal residue; disulfide bridge Cys2-Cys7; C-terminal amide
notes: Synthetic acylated analogue of human amylin; also called compound 19
B7: N^α1-[(4S)-4-carboxy-4-(19-carboxynonadecanoylamino)butanoyl]-[Arg17,Pro21,Pro27,Arg34]-h-amylin (peptide)
peptide: B1 peptide with S34R
modifications: C20 diacid-gGlu on the alpha amino group of the N-terminal residue; disulfide bridge Cys2-Cys7; C-terminal amide
notes: Synthetic acylated analogue of human amylin; also called compound 39
B8: N^ε-[2-[2-[2-[[(4S)-4-carboxy-4-(19-carboxynonadecanoylamino)butanoyl]amino]ethoxy]ethoxy]acetyl]Lys[Arg1,Arg17,Pro21,Pro27,His35]-h-amylin (peptide)
peptide: K([AEEA-γGlu-C20 diacid])RCNTATCATQRLANFLRHSSPNFGAIPSSTNVGSHTY-NH2
modifications: disulfide 3-8; N-terminus assumed
SMILES: CC[C@H](C)[C@H](NC(=O)[C@H](C)NC(=O)CNC(=O)[C@H](Cc1ccccc1)NC(=O)[C@H](CC(N)=O)NC(=O)[C@@H]1CCCN1C(=O)[C@H](CO)NC(=O)[C@H](CO)NC(=O)[C@H](Cc1c[nH]cn1)NC(=O)[C@H](CCCNC(=N)N)NC(=O)[C@H](CC(C)C)NC(=O)[C@H](Cc1ccccc1)NC(=O)[C@H](CC(N)=O)NC(=O)[C@H](C)NC(=O)[C@H](CC(C)C)NC(=O)[C@H](CCCNC(=N)N)NC(=O)[C@H](CCC(N)=O)NC(=O)[C@@H](NC(=O)[C@H](C)NC(=O)[C@@H]1CSSC[C@H](NC(=O)[C@H](CCCNC(=N)N)NC(=O)[C@@H](N)CCCCNC(=O)COCCOCCNC(=O)CC[C@H](NC(=O)CCCCCCCCCCCCCCCCCCC(=O)O)C(=O)O)C(=O)N[C@@H](CC(N)=O)C(=O)N[C@@H]([C@@H](C)O)C(=O)N[C@@H](C)C(=O)N[C@@H]([C@@H](C)O)C(=O)N1)[C@@H](C)O)C(=O)N1CCC[C@H]1C(=O)N[C@@H](CO)C(=O)N[C@@H](CO)C(=O)N[C@H](C(=O)N[C@@H](CC(N)=O)C(=O)N[C@H](C(=O)NCC(=O)N[C@@H](CO)C(=O)N[C@@H](Cc1c[nH]cn1)C(=O)N[C@H](C(=O)N[C@@H](Cc1ccc(O)cc1)C(N)=O)[C@@H](C)O)C(C)C)[C@@H](C)O
notes: h-amylin derivative, N-terminally extended by one residue; disulfide bridge and C-terminal amide as told for human amylin; also called compound 45
B9: N^ε-[(4S)-4-carboxy-4-(19-carboxynonadecanoylamino)butanoyl]Lys[Arg1,Arg17,Pro21,Pro27,His35]-h-amylin (peptide)
peptide: K([γGlu-C20 diacid])RCNTATCATQRLANFLRHSSPNFGAIPSSTNVGSHTY-NH2
modifications: disulfide 3-8; N-terminus assumed
SMILES: CC[C@H](C)[C@H](NC(=O)[C@H](C)NC(=O)CNC(=O)[C@H](Cc1ccccc1)NC(=O)[C@H](CC(N)=O)NC(=O)[C@@H]1CCCN1C(=O)[C@H](CO)NC(=O)[C@H](CO)NC(=O)[C@H](Cc1c[nH]cn1)NC(=O)[C@H](CCCNC(=N)N)NC(=O)[C@H](CC(C)C)NC(=O)[C@H](Cc1ccccc1)NC(=O)[C@H](CC(N)=O)NC(=O)[C@H](C)NC(=O)[C@H](CC(C)C)NC(=O)[C@H](CCCNC(=N)N)NC(=O)[C@H](CCC(N)=O)NC(=O)[C@@H](NC(=O)[C@H](C)NC(=O)[C@@H]1CSSC[C@H](NC(=O)[C@H](CCCNC(=N)N)NC(=O)[C@@H](N)CCCCNC(=O)CC[C@H](NC(=O)CCCCCCCCCCCCCCCCCCC(=O)O)C(=O)O)C(=O)N[C@@H](CC(N)=O)C(=O)N[C@@H]([C@@H](C)O)C(=O)N[C@@H](C)C(=O)N[C@@H]([C@@H](C)O)C(=O)N1)[C@@H](C)O)C(=O)N1CCC[C@H]1C(=O)N[C@@H](CO)C(=O)N[C@@H](CO)C(=O)N[C@H](C(=O)N[C@@H](CC(N)=O)C(=O)N[C@H](C(=O)NCC(=O)N[C@@H](CO)C(=O)N[C@@H](Cc1c[nH]cn1)C(=O)N[C@H](C(=O)N[C@@H](Cc1ccc(O)cc1)C(N)=O)[C@@H](C)O)C(C)C)[C@@H](C)O
notes: h-amylin derivative, N-terminally extended by one residue; disulfide bridge and C-terminal amide as told for human amylin; also called compound 44
B10: N^-1-[(4S)-4-carboxy-4-(19-carboxynonadecanoylamino)butanoyl]-Gly[Arg1,Arg17,Pro21,Pro27]-h-amylin (peptide)
peptide: {C20 diacid-γGlu}-GRCNTATCATQRLANFLRHSSPNFGAIPSSTNVGSNTY-NH2
modifications: disulfide 3-8
SMILES: CC[C@H](C)[C@H](NC(=O)[C@H](C)NC(=O)CNC(=O)[C@H](Cc1ccccc1)NC(=O)[C@H](CC(N)=O)NC(=O)[C@@H]1CCCN1C(=O)[C@H](CO)NC(=O)[C@H](CO)NC(=O)[C@H](Cc1c[nH]cn1)NC(=O)[C@H](CCCNC(=N)N)NC(=O)[C@H](CC(C)C)NC(=O)[C@H](Cc1ccccc1)NC(=O)[C@H](CC(N)=O)NC(=O)[C@H](C)NC(=O)[C@H](CC(C)C)NC(=O)[C@H](CCCNC(=N)N)NC(=O)[C@H](CCC(N)=O)NC(=O)[C@@H](NC(=O)[C@H](C)NC(=O)[C@@H]1CSSC[C@H](NC(=O)[C@H](CCCNC(=N)N)NC(=O)CNC(=O)CC[C@H](NC(=O)CCCCCCCCCCCCCCCCCCC(=O)O)C(=O)O)C(=O)N[C@@H](CC(N)=O)C(=O)N[C@@H]([C@@H](C)O)C(=O)N[C@@H](C)C(=O)N[C@@H]([C@@H](C)O)C(=O)N1)[C@@H](C)O)C(=O)N1CCC[C@H]1C(=O)N[C@@H](CO)C(=O)N[C@@H](CO)C(=O)N[C@H](C(=O)N[C@@H](CC(N)=O)C(=O)N[C@H](C(=O)NCC(=O)N[C@@H](CO)C(=O)N[C@@H](CC(N)=O)C(=O)N[C@H](C(=O)N[C@@H](Cc1ccc(O)cc1)C(N)=O)[C@@H](C)O)C(C)C)[C@@H](C)O
notes: h-amylin derivative, N-terminally extended by one residue; disulfide bridge and C-terminal amide as told for human amylin; also called compound 46
B11: N^ε1-[(4S)-4-carboxy-4-(19-carboxynonadecanoylamino)butanoyl]-[Arg17,Pro21,Pro27]-h-amylin (peptide)
peptide: K([γGlu-C20 diacid])CNTATCATQRLANFLRHSSPNFGAIPSSTNVGSNTY-NH2
modifications: disulfide 2-7; N-terminus assumed
SMILES: CC[C@H](C)[C@H](NC(=O)[C@H](C)NC(=O)CNC(=O)[C@H](Cc1ccccc1)NC(=O)[C@H](CC(N)=O)NC(=O)[C@@H]1CCCN1C(=O)[C@H](CO)NC(=O)[C@H](CO)NC(=O)[C@H](Cc1c[nH]cn1)NC(=O)[C@H](CCCNC(=N)N)NC(=O)[C@H](CC(C)C)NC(=O)[C@H](Cc1ccccc1)NC(=O)[C@H](CC(N)=O)NC(=O)[C@H](C)NC(=O)[C@H](CC(C)C)NC(=O)[C@H](CCCNC(=N)N)NC(=O)[C@H](CCC(N)=O)NC(=O)[C@@H](NC(=O)[C@H](C)NC(=O)[C@@H]1CSSC[C@H](NC(=O)[C@@H](N)CCCCNC(=O)CC[C@H](NC(=O)CCCCCCCCCCCCCCCCCCC(=O)O)C(=O)O)C(=O)N[C@@H](CC(N)=O)C(=O)N[C@@H]([C@@H](C)O)C(=O)N[C@@H](C)C(=O)N[C@@H]([C@@H](C)O)C(=O)N1)[C@@H](C)O)C(=O)N1CCC[C@H]1C(=O)N[C@@H](CO)C(=O)N[C@@H](CO)C(=O)N[C@H](C(=O)N[C@@H](CC(N)=O)C(=O)N[C@H](C(=O)NCC(=O)N[C@@H](CO)C(=O)N[C@@H](CC(N)=O)C(=O)N[C@H](C(=O)N[C@@H](Cc1ccc(O)cc1)C(N)=O)[C@@H](C)O)C(C)C)[C@@H](C)O
notes: h-amylin derivative; disulfide bridge and C-terminal amide as told for human amylin; also called compound 48

target: T1, human calcitonin receptor; assay: cell-based or functional assay

hCTR funct. EC50 | Binder
10 nM | B1
14.1 nM | B2
3.02 nM | B3
2.68 nM | B4
2.62 nM | B5
5.32 nM | B6
2.52 nM | B7

target: T2, human amylin receptor (amylin 3(a) …); assay: cell-based or functional assay

Ratio hCT/hAmylin funct. | hAmylin-R funct. EC50 | Binder
23.1 ratio | 0.433 nM | B1
8.9 ratio | 0.34 nM | B3
16.4 ratio | 0.164 nM | B4
8.4 ratio | 0.313 nM | B5
17.4 ratio | 0.307 nM | B6
11.6 ratio | 0.217 nM | B7

target: T3, human calcitonin receptor; assay: cell-based or functional assay

hCTR funct. EC50 | Binder
10.1 nM | B8
4.75 nM | B9
0.899 nM | B10
1.97 nM | B11
